Reference: patent US20010010935A1

Molecular target: murine SCI/MIP1-α Variant 3 (murine) (UniProt P10855)
Test: chromatographic techniques, molecular weight estimate

Substance: murine SCI/MIP1-α Variant 3 (from UniProt P10855) (ligand)
- estimated molecular weight (self-association): 8 kD
